Biological target: GFP-αA-crystallin (UniProt P02489 2-173)
Test: cell-based or functional assay

GFP-αA-crystallin, sequence (P02489 2-173): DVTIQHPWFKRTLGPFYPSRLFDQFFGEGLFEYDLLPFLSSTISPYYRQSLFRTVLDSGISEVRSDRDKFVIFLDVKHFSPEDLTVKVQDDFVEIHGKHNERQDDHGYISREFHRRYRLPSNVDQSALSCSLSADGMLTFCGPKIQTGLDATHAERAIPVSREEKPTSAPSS

percentage of HeLa cells with protein aggregates, cotransfection of GFP-αA- and RED-αB-crystallin against RED-αB-crystallin alone (confocal microscopy): > 4 fold
B1: RED-αB-crystallin (natural protein, UniProt P02511 2-175, looked up)
chain: DIAIHHPWIRRPFFPFHSPSRLFDQFFGEHLLESDLFPTSTSLSPFYLRPPSFLRAPSWFDTGLSEMRLEKDRFSVNLDVKHFSPEELKVKVLGDVIEVHGKHEERQDEHGFISREFHRKYRIPADVDPLTITSSLSSDGVLTVNGPRKQVSGPERTIPITREEKPAVTAAPKK
